Measured values: patent US20200062856A1 (XDCEXPLORER SHANGHAI, published 2020)

Key:
[1] = target: mouse TPBG protein, full-length, on the cell surface (mouse) (UniProt Q9Z0L0); assay: FACS, CHOk1-mTPBG 3A3 cells
[2] = target: human TPBG protein, full-length, on the cell surface (human) (UniProt Q13641); assay: FACS, CHOk1-hTPBG 3A2F1 cells
[3] = target: cynomolgus TPBG protein, full-length, on the cell surface (cynomolgus) (UniProt Q4R8Y9); assay: FACS, CHOk1-cTPBG 3F13G4 cells
[4] = target: human TPBG protein, full-length, on the cell surface (human) (UniProt Q13641); assay: FACS, HEK293 clone 293F-hTPBG 4A8
[5] = target: human TPBG protein, full-length, on the cell surface (human) (UniProt Q13641); assay: FACS, HEK293 clone 293F-hTPBG 4A9
[6] = target: human TPBG protein, full-length, on the cell surface (human) (UniProt Q13641); assay: FACS, HEK293 clone 293F-hTPBG 4B9
[7] = target: human TPBG protein, full-length, on the cell surface (human) (UniProt Q13641); assay: FACS, HEK293 clone 293F-hTPBG 4C3
[8] = target: human TPBG protein, full-length, on the cell surface (human) (UniProt Q13641); assay: FACS, HEK293 clone 293F-hTPBG 4C5
[9] = target: human TPBG protein, full-length, on the cell surface (human) (UniProt Q13641); assay: FACS, HEK293 clone 293F-hTPBG 4E1
[10] = target: human TPBG protein, full-length, on the cell surface (human) (UniProt Q13641); assay: FACS, HEK293 clone 293F-hTPBG 4F9
[11] = target: human TPBG protein, full-length, on the cell surface (human) (UniProt Q13641); assay: FACS, HEK293 clone 293F-hTPBG 4G1
[12] = target: human TPBG protein, full-length, on the cell surface (human) (UniProt Q13641); assay: FACS, HEK293 clone 293F-hTPBG 4G6
[13] = target: human TPBG protein, full-length, on the cell surface (human) (UniProt Q13641); assay: FACS, HEK293 clone 293F-hTPBG 5A9
[14] = target: human TPBG protein, full-length, on the cell surface (human) (UniProt Q13641); assay: FACS, HEK293 clone 293F-hTPBG 5D4
[15] = target: human TPBG protein, full-length, on the cell surface (human) (UniProt Q13641); assay: FACS, HEK293 clone 293F-hTPBG 5E5
[16] = target: human TPBG protein, full-length, on the cell surface (human) (UniProt Q13641); assay: FACS, HEK293 clone 293F-hTPBG 5E6
[17] = target: human TPBG protein, full-length, on the cell surface (human) (UniProt Q13641); assay: FACS, HEK293 clone 293F-hTPBG 5G8
[18] = target: human TPBG protein, full-length, on the cell surface (human) (UniProt Q13641); assay: FACS, HEK293 clone 293F-hTPBG 5H6
[19] = target: human TPBG protein, full-length, on the cell surface (human) (UniProt Q13641); assay: FACS, HEK293 clone 293F-hTPBG 4H12
[20] = target: human TPBG protein, full-length, on the cell surface (human) (UniProt Q13641); assay: FACS, HEK293 clone 293F-hTPBG 5A11
[21] = target: human TPBG protein, full-length, on the cell surface (human) (UniProt Q13641); assay: FACS, HEK293 clone 293F-hTPBG 5C12
[22] = target: human TPBG protein, full-length, on the cell surface (human) (UniProt Q13641); assay: FACS, HEK293 clone 293F-hTPBG 5G11
[23] = target: human TPBG protein, full-length, on the cell surface (human) (UniProt Q13641); assay: FACS, HEK293 clone 293F-hTPBG 4E1 (NO 8)
human TPBG-hFc protein [24] = target: T1, human TPBG-hFc protein (human, UniProt Q13641 32-355); assay: ELISA, coated human TPBG-hFc 1.0 ug/mL; control IgG at 2 nM
T1 construct: range 32-355; Expressed in HEK293 cells, purified on protein A; also called immunogen A; hFc tagged TPBG protein; not shown: human IgG Fc fragment of the pCpC vector
T1 sequence (looked up): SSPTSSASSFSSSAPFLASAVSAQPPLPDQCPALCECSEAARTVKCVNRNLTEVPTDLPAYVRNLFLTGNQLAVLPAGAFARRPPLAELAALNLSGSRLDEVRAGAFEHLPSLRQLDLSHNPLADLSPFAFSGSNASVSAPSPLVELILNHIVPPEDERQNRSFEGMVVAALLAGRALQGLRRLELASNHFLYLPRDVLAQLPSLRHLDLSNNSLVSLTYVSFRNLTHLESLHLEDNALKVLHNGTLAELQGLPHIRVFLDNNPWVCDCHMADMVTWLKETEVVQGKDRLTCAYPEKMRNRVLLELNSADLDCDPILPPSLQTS

human TPBG-hFc protein [25] = target: T1, human TPBG-hFc protein; assay: ELISA, coated human TPBG-hFc 1.0 ug/mL; control IgG at 20 nM
human TPBG-hFc protein [26] = target: T1, human TPBG-hFc protein; assay: ELISA, coated human TPBG-hFc 1.0 ug/mL; control IgG at 0.2 nM
human TPBG-hFc protein [27] = target: T1, human TPBG-hFc protein; assay: ELISA, coated human TPBG-hFc 1.0 ug/mL; control IgG at 200 nM
human TPBG-hFc protein [28] = target: T1, human TPBG-hFc protein; assay: ELISA, coated human TPBG-hFc 1.0 ug/mL; control IgG at 0.02 nM
human TPBG-hFc protein [29] = target: T1, human TPBG-hFc protein; assay: ELISA, coated human TPBG-hFc 1.0 ug/mL; control IgG at 0.002 nM
human TPBG-hFc protein [30] = target: T1, human TPBG-hFc protein; assay: ELISA, coated human TPBG-hFc 1.0 ug/mL; control IgG at 0.0002 nM

Cellular MFI [1]: 2.38 MFI | Cellular MFI [2]: 3.24 MFI | Cellular MFI [3]: 2.66 MFI | Cellular MFI [4]: 3.1 MFI | Cellular MFI [5]: 6.3 MFI | Cellular MFI [6]: 6.3 MFI | Cellular MFI [7]: 3.2 MFI | Cellular MFI [8]: 5.6 MFI | Cellular MFI [9]: 5.2 MFI | Cellular MFI [10]: 3.9 MFI | Cellular MFI [11]: 4 MFI | Cellular MFI [12]: 3.1 MFI | Cellular MFI [13]: 5 MFI | Cellular MFI [14]: 3 MFI | Cellular MFI [15]: 5.6 MFI | Cellular MFI [16]: 2.6 MFI | Cellular MFI [17]: 6 MFI | Cellular MFI [18]: 3 MFI | Cellular MFI [19]: 4 MFI | Cellular MFI [20]: 4.6 MFI | Cellular MFI [21]: 3.7 MFI | Cellular MFI [22]: 4.1 MFI | Cellular MFI [23]: 4.8 MFI | OD450 nm (human TPBG-hFc protein [24]): 0.1 OD450 nm | OD450 nm (human TPBG-hFc protein [25]): 0.11 OD450 nm | OD450 nm (human TPBG-hFc protein [26]): 0.11 OD450 nm | OD450 nm (human TPBG-hFc protein [27]): 0.24 OD450 nm | OD450 nm (human TPBG-hFc protein [28]): 0.1 OD450 nm | OD450 nm (human TPBG-hFc protein [29]): 0.1 OD450 nm | OD450 nm (human TPBG-hFc protein [30]): 0.11 OD450 nm
Substance: mouse IgG (isotype control) (antibody)
